Source: article PMC6999705

How the values were obtained:
MFG-E8-Ig (mouse) = MFG-E8-Ig (mouse) (UniProt P21956); assay: SEC
RGE-MFG-E8-Ig (mouse) = RGE-MFG-E8-Ig (mouse) (UniProt P21956); assay: SEC

Substance | stoichiometry N (MFG-E8-Ig (mouse)) | stoichiometry N (RGE-MFG-E8-Ig (mouse))
MFG-E8-Ig (from UniProt P21956 23-148) (Fc fusion) | 2 | –
RGE-MFG-E8-Ig (from UniProt P21956 23-148) (Fc fusion) | – | 2
